Four substances from paper PMC5397179 can be followed below.

Data set [1] relates to PcrA-sCt (C-terminal Tudor-like domain) (Geobacillus stearothermophilus). The data set is described as follows: EMSA. The note with it: no binding detected up to 5 uM; 2.5 mM Mg2+; EMSA: 50 nM (so in the source) HEPES-KOH pH 7.5, 100 mM KCl, 2.5 mM MgCl2, 0.1 mg/mL BSA, 1 mM (reagent truncated in material); 20 nM DNA; TBE-PAGE; temperature not ….
For the next data set, the target named is RNAP subunit ω. Description: pulldown quantified by mass spectrometry. The note with it: parent: est. 13; read off a plot.
The target of another data set is RNAP subunit α. Description: pulldown quantified by mass spectrometry. The note with it: parent: est. 6.2; read off a plot.
Another data set has as its target RNAP subunit β'. The data set is described as follows: pulldown quantified by mass spectrometry. The note with it: parent: est. 12; read off a plot.
Another data set concerns the target RNAP subunit δ. Description: pulldown quantified by mass spectrometry. The note with it: parent: est. 12; read off a plot.
The target in another data set is RNAP subunit β. The data set is described as follows: pulldown quantified by mass spectrometry. The note with it: parent: est. 16; read off a plot.

pKd: −log10 of the molar value.

Substance 147 base ssDNA oligonucleotide showed a negative-log Kd (pKd) in data set [1] of less than 5.30.

147 bp dsDNA: in data set [1], the pKd was less than 5.30.

In the case of “Biotinylated full length PcrA (Geobacillus stearothermophilus), wild type (from UniProt P56255) K712A”, the other: Relative Ion Score with RNAP subunit ω stood at 4.7; in the data set with RNAP subunit α it was 2.7; with RNAP subunit β', 3.6; with RNAP subunit δ, 3.1; in the data set with RNAP subunit β, 4.5.

As to “Biotinylated full length PcrA (Geobacillus stearothermophilus), wild type (from UniProt P56255) L714A”, the other: Relative Ion Score is 2.6 in the data set with RNAP subunit ω; 2.7 with RNAP subunit α; 2.8 in the data set with RNAP subunit β'; 3.6 in the data set with RNAP subunit δ; 4.1 in the data set with RNAP subunit β.
